Like-named read-outs stand apart in the source and are kept apart here.
Assays:
PBMC [1] = assay: Induction of regulatory T cells in vitro with OKT3 then IL-10/IL-2; inhibition of PHA-stimulated PBMC proliferation; type: cell-based, human
Text: See text in Example 4 for details of the experimental procedure. […] In the left panel of FIG. 10A, responder cells alone were stimulated with PHA and the percentage of proliferating cells was 67%. In the right panel of FIG. 10A, responder cells were stimulated with PHA in the presence of cells treated with anti-CD3 mAb/IL-10/IL-2, and the percentage of proliferating cells was 43%. The number of proliferating responder cells (i.e. diluted CFSE (carboxy-fluorescein diacetate, succinimidyl ester)) in the presence of the added cells is shown. […] In the left panel of FIG. 10B, responder cells alone were stimulated with PHA and the percentage of proliferating cells was 50%. In the right panel of FIG. 10B, responder cells were stimulated with PHA in the presence of IL-10/IL-2 cultured cells, and the percentage of proliferating cells was 54%.
3. Treatment with anti-CD3 mAb induces regulatory T cells in vitro: In order to obtain sufficient numbers of cells for studies of functional properties, anti-CD3 mAb has been utilized to expand regulatory T cells in vitro. PBMC were cultured for 10 days with OKT3 mAb and then CD4+ cells were isolated by sorting. They were then cultured for 19 days with IL-10 and IL-2. These cells were then added to cultures of PBMC from the same individual, stimulated with PHA (phytohemagglutinin). […] The majority (94%) of the CD4+ cells that inhibit PBMC proliferation are CCR4+, 46% are CD62L+, and 93% are CD45RO+. About 5% of the cells are GITR+.

NOD mice = details: cited from earlier work
[2] = system: patients with new onset Type 1 diabetes; assay: Phase I/II trial of hOKT3γ1(Ala-Ala) in new onset Type 1 diabetes: C-peptide response to MMTT; type: in vivo, human; details: patients with new onset T1D
[3] = system: patients with new onset Type 1 diabetes; assay: Side effects of hOKT3γ1(Ala-Ala) in the Phase I/II trial (WHO Criteria); type: in vivo, human
Text: The dosing regimen was modified from a 14-day to a 12-day course after treatment of the first 12 patients.

CD4+IL-10+ T cells = assay: Induction of CD4+IL-10+ cells in vivo in treated patients (intracellular cytokine staining); parameters: species or system human
Text: Cells were isolated from patients after treatment with the mAb and stained for intracytoplasmic IL-10 and IFN-γ without further activation ex vivo. IL-10+CD4+ cells were identified in 5/6 patients within 1 week after the last dose of mAb.
2. […] PBMC were harvested and frozen from a patient treated with hOKT3γ1(Ala-Ala) at the conclusion of mAb treatment. These cells, as well as those harvested before mAb treatment were thawed and stained for intracellular cytokines, IL-10 and IFN-γ. Markers were placed around surface molecules CD4 and CD3. Cells harvested from patients after anti-CD3 mAb treatment were producing IL-10 in vivo. […] These induced cells were IFN-γ negative, predominantly CD45RO+, and generally CCR4+. Thirteen percent of these cells produced TGF-β by surface staining.

PBMC [4] = assay: Inhibitory properties of cells grown in hOKT3γ1(Ala-Ala) and IL-10/IL-2 on PHA-stimulated PBMC; type: cell-based, human; details: 10 days with mAb, sorted, 2 weeks IL-10 and IL-2
Description: Other cells were cultured in IL-10/IL-2 (FIG. 11B), sorted, and then cultured for an addition 19 days in IL-10/IL-2. Both groups of cells were added to fresh PBMC. Uptake of 3H-thymidine was measured 72 hrs after the addition of PHA.
These cells were then cultured for an additional 2 weeks in IL-10 and IL-2 and then added to PBMC from the same donor and stimulated with PHA.

T cells = details: cited from earlier work
[5] = after OKT3 10 days, IL-10/IL-2 19 days
[6] = Phase I/II trial, 12 or 14-day regimen

OKT3 mAb: murine anti-CD3 mAb; in FIG. 10 cells cultured with it, then with IL-10 and IL-2
percentage of proliferating responder cells (PBMC [1]; PHA stimulation in presence of added cultured cells, responder cells alone 67% (FIG. 10A) or 50% (FIG. 10B)): 43% | inhibitory CD4+ cells that are CCR4+ (PBMC [1]; [5]): 94% | inhibitory CD4+ cells that are CD45RO+ (PBMC [1]; [5]): 93% | inhibitory CD4+ cells that are CD62L+ (PBMC [1]; [5]): 46% | inhibitory CD4+ cells that are GITR+ (PBMC [1]; [5]): About 5% | effect of added cultured cells on proliferation of PHA-stimulated CD4+ T cells/PBMC (PBMC [1]; cells added at ratio 1:5): inhibited proliferation

rhGAD65: human GAD 65 protein, obtained from Diamyd
anaphylaxis (NOD mice; reports in NOD mice (Liu et al. 2002; Pedotti et al. 2003)): fatal anaphylactic reactions

hOKT3γ1(Ala-Ala): humanized anti-CD3 mAb with the same CDR region as OKT3 and a mutation in the Fc portion to reduce FcR binding
duration of functional immunologic tolerance after treatment [2]: at least 1 year | Arthralgia, Mild [3, 6]: 8% | Arthralgia, Moderate [3, 6]: 0 | Arthralgia, Severe [3, 6]: 0 | Diarrhea, Mild [3, 6]: 0 | Diarrhea, Moderate [3, 6]: 0 | Diarrhea, Severe [3, 6]: 0 | Dyspnea, Mild [3, 6]: 8% | Dyspnea, Moderate [3, 6]: 0 | Dyspnea, Severe [3, 6]: 0 | Fever, Mild [3, 6]: 17% | Fever, Moderate [3, 6]: 58% | Fever, Severe [3, 6]: 0 | Headache, Mild [3, 6]: 33% | Headache, Moderate [3, 6]: 0 | Headache, Severe [3, 6]: 0 | Hypotension, Mild [3, 6]: 0 | Hypotension, Moderate [3, 6]: 0 | Hypotension, Severe [3, 6]: 0 | Myalgia, Mild [3, 6]: 17% | Myalgia, Moderate [3, 6]: 0 | Myalgia, Severe [3, 6]: 0 | Nausea, Mild [3, 6]: 8% | Nausea, Moderate [3, 6]: 0 | Nausea, Severe [3, 6]: 0 | Rash, Mild [3, 6]: 58% | Rash, Moderate [3, 6]: 25% | Rash, Severe [3, 6]: 0 | Vomiting, Mild [3, 6]: 8% | Vomiting, Moderate [3, 6]: 0 | Vomiting, Severe [3, 6]: 0 | tolerability ([3]; data from patients with T1DM): well tolerated | induced CD4+IL-10+ cells producing TGF-β by surface staining (CD4+IL-10+ T cells; PBMC at conclusion of mAb treatment): Thirteen | patients in whom IL-10+CD4+ cells were identified (CD4+IL-10+ T cells; within 1 week after the last dose of mAb): 5/6 | effect of CCR4+ cells from cultures on proliferation of PHA-stimulated PBMC (PBMC [4]): inhibited proliferation | cytokine production after activation signal to T cells (T cells; compared with OKT3, Herold et al. 2003): relatively greater production of IL-10 instead of IFN-γ | T cell activation compared with OKT3 (T cells; in vitro or in vivo, Xu et al. 2000): does not cause the same T cell activation

insulin B9-23 peptide: peptide comprising amino acids 9-23 of the insulin B chain (SHLVEALYLVCGERG)
anaphylaxis (NOD mice; mouse, in vivo): anaphylaxis | anaphylaxis (NOD mice; reports in NOD mice (Liu et al. 2002; Pedotti et al. 2003), listed as insulin peptide): fatal anaphylactic reactions
